Source: the supplement of paper PMC12042874
± gives the uncertainty stated by the source.

Assay: amyloid nucleation score (Sup35N fusion, yeast selection) (log enrichment); library NNK2; higher = more nucleation; inactive = no reads after selection
Outline: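 The nucleation score is the log enrichment of output over input reads, calculated with DiMSum and centred on the mode score of non-aggregating sequences. Sequences with under 100 input reads were excluded. Reads came from Illumina sequencing of plasmid inserts from psi-negative yeast expressing Sup35N fused to peptides of 20 random codons, induced 24 hours with 100 μM copper sulfate and grown 7 days at 30°C without adenine and uracil.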

| Substance | amyloid nucleation score |
| --- | --- |
| EVLSRDRSSAPFAVLLAGSR | 0.129 ± 0.76 |
| EVSNRCRRLSTRRVHSVLVG | 1.13 ± 0.25 |
| EVSSGTCFGTS | 0.084 ± 0.42 |
| EVTWDVLAIVLTLMKKA | 4.27 ± 0.083 |
| EVVAISNTASICLYSNYKH | 5.04 ± 0.1 |
| EWSRGLCTVQLA | 0.058 ± 0.65 |
| EWVRWLVVLNLRSNAGNYDI | -0.953 ± 0.54 |
| EYMTMDELDWWSRQCFGWAQ | 1.64 ± 0.42 |
| EYQLDHVY | -0.711 ± 1.1 |
| EYSNFVTNEYEWIVGPTWSS | 6.317 ± 0.026 |
| EYTIFTDLLLYDFKWLEYVW | 0.561 ± 0.62 |
| EYVADHGQIADGR | 0.782 ± 0.26 |
| FAFKTLVWHRGVCRFPGARL | inactive |
| FAIGR | -0.077 ± 0.36 |
| FARGMVRSSTGTM | -1.88 ± 0.44 |
| FASCRIVSRG | inactive |
| FAWGPFA | -0.557 ± 0.37 |
| FCAYVAWLSSWNIQPAKGRG | 1.1 ± 0.35 |
| FCFLKFCMLHRLLVFLWRQF | 1.54 ± 0.11 |
| FCGQKTNFNCLDETLLIR | 1.09 ± 0.59 |
| FCILSWGLSVRYSRVPLNYK | 1.14 ± 0.18 |
| FCISFRTRSDPRSHSSGAIE | 0.498 ± 0.54 |
| FCMADVYSGTLRNNYHTSEV | -0.986 ± 0.31 |
| FCNVKLLLVGWCRVSVKKGV | 2.12 ± 0.28 |

| Substance | amyloid nucleation score |
| --- | --- |
| FCSGLYHVYAD | 2.28 ± 0.15 |
| FCSHMLARTYLKCGREDR | -0.337 ± 1 |
| FCSSIVMVNSQCFVKSFSTK | 6.311 ± 0.028 |
| FCVIAQYAQVPMSCWGWLES | -0.191 ± 1.1 |
| FCWFRLLEYFSR | -0.201 ± 0.45 |
| FDAQNSWSWHRSWQNVFRKG | 1.54 ± 0.22 |
| FDDLLEARYSFSVKVCY | -0.947 ± 0.35 |
| FDILDCDNLELGLYIFILDL | -1.14 ± 1 |
| FDIPCSFVPVYHIKAFLCRM | -0.353 ± 0.79 |
| FDLNSTVWIRCGGLILRLKP | 0.01 ± 0.25 |
| FDTGSRYFFNELRGGNCHCW | 1.26 ± 0.21 |
| FDVSWMARVELSIM | -0.018 ± 0.33 |
| FDWISVRGTGWFCLRWWLYV | inactive |
| FEAYYWLADLNLLCYLGVRS | 3.79 ± 0.052 |
| FEDIFCWVY | -1.79 ± 0.76 |
| FEFVYFVRSIG | -0.129 ± 0.5 |
| FEGFNAMVSGLRYSSMGCFH | 0.334 ± 0.25 |
| FESFLTLYIIYTGAANNSWV | 4.01 ± 0.087 |
| FEVYKANDIEIYYAVCEMGV | -1.34 ± 0.26 |
| FEYLYYIDIYLWYCEGRVAK | -0.661 ± 0.54 |
| FFCFFKIYFWMRAAGTSLNR | -0.861 ± 1 |
| FFCLIVLVANVTCCGRDEGP | 5.32 ± 0.055 |
| FFEFKDNSSWFK | 3.3 ± 0.052 |
| FFFMTKNFKIFTSALDVPSE | -1.14 ± 1.1 |

| Substance | amyloid nucleation score |
| --- | --- |
| FFFNVSLHVRNFLEEVSVAS | inactive |
| FFFNYLSCLRNAVNWFNRGM | inactive |
| FFGRGSHKAGYYSCTTSLTQ | 1.07 ± 0.16 |
| FFLLAGVLDWAYGWYYIVWK | 0.147 ± 1.1 |
| FFMGGMRASNMDYATSWLK | 4.3 ± 0.099 |
| FFTGFDLVPVSYI | inactive |
| FFVPYDSYTYHLILFLKQLV | -0.535 ± 0.53 |
| FGDYPNSLKWLQE | -0.558 ± 0.63 |
| FGFYFLVSGLCRCDLPFHVL | -0.757 ± 0.76 |
| FGHNGRICKRLMEVPIFERA | -0.655 ± 0.32 |
| FGINSLYINKWSDRLRQCTR | -0.142 ± 0.79 |
| FGIQGWLFSNSWFLILVFFL | inactive |
| FGMYPVVGCLDRLYWMRLYA | 0.539 ± 0.81 |
| FGRRLQGRHINSNDQWGRQA | 0.339 ± 0.61 |
| FGRWHYLQRGFKRSGVHFNR | inactive |
| FGTYSI | 0.389 ± 0.74 |
| FGVHVRCSEDDMAFALDLD | 0.155 ± 0.28 |
| FGVIICAMSCQKD | 7.501 ± 0.026 |
| FGVTHVSWIQERVTADGAER | 0.998 ± 0.39 |
| FGYAVVQRYYKWWIAMNTQA | -0.04 ± 0.42 |
| FHMRFMMVFIRLKTRTKLIL | -0.797 ± 0.42 |
| FHSPLCSCQSSLKVEWGHSE | inactive |
| FIADIVYLMNFGEIWG | 4.68 ± 0.1 |
| FIADLSDMW | -0.916 ± 1.1 |

| Substance | amyloid nucleation score |
| --- | --- |
| FIARDRLMTDRTRGKPSWEG | 0.231 ± 0.3 |
| FIERSSLEDNVSSALAISR | 0.704 ± 0.47 |
| FIFKGNQWKVFVFL | 2.83 ± 0.068 |
| FIFVVMVMVWFWTGLCLSYN | inactive |
| FILCMTSWDYLDDCRFLFEL | 1.03 ± 0.25 |
| FINKIKVRLNLMSGSANRLL | 4.57 ± 0.11 |
| FINLYRVGVVCFILNKVGYF | 3.71 ± 0.052 |
| FISMNLEVSN | -0.26 ± 1 |
| FISSVIIGYSDPGVEGILLV | -0.922 ± 0.78 |
| FIYLIMFCKMVQWTIAFFKA | -0.658 ± 0.64 |
| FKIAGRI | inactive |
| FKNAWFLATFNPTT | -0.104 ± 0.23 |
| FKRSTCNLR | -0.479 ± 0.29 |
| FKSTNLMAWIFGMYIVFLGF | -0.08 ± 1 |
| FLFMLLSPVSMARLDKVMMG | 0.313 ± 0.65 |
| FLLDAPKLAEDEYPHGSDDN | inactive |
| FLLNIDTFSLMRSVTANTLV | -0.697 ± 0.48 |
| FLMRDFGMWFLFSNLLYITL | -0.628 ± 0.48 |
| FLMSTSLRSCICCVLLPSDN | 8.908 ± 0.032 |
| FLNESGSFWCSGFLIWVMRM | -0.568 ± 0.76 |
| FLNFIFELSSWMDF | -1.6 ± 1.1 |
| FLPCL | -0.739 ± 1 |
| FLQLLDNFALLDLVG | -0.12 ± 0.79 |
| FLSDATAYH | inactive |

| Substance | amyloid nucleation score |
| --- | --- |
| FLSRSQRCMIG | 0.313 ± 0.64 |
| FLSSSGRFSIVYSLFYEWIP | -0.674 ± 0.76 |
| FLSVEENGLTDVTVMGWFV | 0.19 ± 1.1 |
| FLVIVTVNLMYESQRMGSPV | inactive |
| FLWHCYNFLKAGS | inactive |
| FLYLIMKGPLAVKYCIKSLG | -0.545 ± 0.76 |
| FLYMQTMLCNSKVFQVSALC | inactive |
| FLYQEPSSCVTTAKISGLMA | inactive |
| FLYTCF | 0.509 ± 0.25 |
| FMECVSNNRMELVAGNEKGC | 0.082 ± 0.27 |
| FMFPGRRPFPIAMWELRFFS | -0.427 ± 1.1 |
| FMGRMTLGHKNAWVSSDRH | -1.33 ± 0.79 |
| FMGVKRVVTRVVCLQIGQPT | 7.11 ± 0.071 |
| FMQGPFNYTRMLSL | -0.808 ± 1.1 |
| FMRWSRISRSGYNDDGSLVG | 3.52 ± 0.067 |
| FMTLAGFSGAVEASGADWRR | -0.606 ± 0.63 |
| FMTVSDTMFHRIVASPQVPA | 0.87 ± 0.32 |
| FMVILYLDSLSLPWNWIVFG | 0.098 ± 0.54 |
| FNALTVDQTVHSYGVYADLP | 0.191 ± 0.21 |
| FNCEGLVNS | -1.25 ± 0.64 |
| FNDHWARRRRDFVNIWFWSE | -0.047 ± 1.1 |
| FNDRKYESCDSDDC | -1.99 ± 0.62 |
| FNISSNVICDNFRDPLVESD | -1.87 ± 0.78 |
| FNMVNTILMNGPSCWLQSVP | 0.21 ± 0.63 |

| Substance | amyloid nucleation score |
| --- | --- |
| FNRGKVMCVAYNGCSRYLMD | -1.64 ± 0.75 |
| FNSSLWVFRIPNCCNRSAYC | inactive |
| FNTCGSHRSGRRFL | inactive |
| FNVLIACWGYKDNFNVYSCE | 5.844 ± 0.035 |
| FNYDSLVSTRAYPFWTVTVF | 1.52 ± 0.43 |
| FQCNCTLSQIAWNKSQGQSS | -0.363 ± 1.1 |
| FRCIDFR | 0.674 ± 0.65 |
| FREVRRF | 0.631 ± 0.41 |
| FRFPFFVQWFFCLSGSQRAR | inactive |
| FRIGHSHGYLLM | -0.805 ± 1.1 |
| FRIKAEVGPIYTYDTGSFNW | -0.162 ± 0.27 |
| FRIPRWFKTS | -0.284 ± 1.1 |
| FRLPNVLRDGSA | 1.41 ± 0.41 |
| FRLSHFILVSHYLNNYEDSF | inactive |
| FRMLNRFLWFKVKMGYMHYG | -0.618 ± 0.42 |
| FRNFELSRTFVVYNPVLQCY | -0.473 ± 0.39 |
| FRPHQVV | inactive |
| FRRRRIFYYITEHVLLCMLK | -0.5 ± 0.64 |
| FRRYYLLFVPAFCVPLKCQY | 0.53 ± 0.66 |
| FRSKPAFRVMGVVCRGFYFL | -0.637 ± 1.1 |
| FRTTALLRFKRWDYGVIRNR | 0.021 ± 0.46 |
| FRVRRGLASGR | 1.28 ± 0.3 |
| FRWYFNVAATCGNRAPGRNV | 1.31 ± 0.18 |
| FRYFDWCIFYSYLLVCY | -1.96 ± 1.1 |

| Substance | amyloid nucleation score |
| --- | --- |
| FRYFSVP | -0.52 ± 0.36 |
| FSCHWAIMTRSGKVEVCNNQ | 5.47 ± 0.069 |
| FSDIWPLRP | 0.806 ± 0.15 |
| FSEWRIGKNMIFCDVIDVCE | 1.94 ± 0.089 |
| FSFEWMFWGWTCNQGTDVVS | -0.319 ± 0.54 |
| FSFIGFLNRNKSAALCKMDI | -1.16 ± 0.76 |
| FSFLHFVERLTGHLIYFSRF | inactive |
| FSFLKLIADPATLVIGTDSW | -0.492 ± 0.3 |
| FSFVTFSGNRFDFLLLRPCT | inactive |
| FSGFYLWSVDFVMLLGAWAH | inactive |
| FSGIYESPMVLHMV | -1.97 ± 0.62 |
| FSGLGDCEVMYVFVNNRLGW | -0.699 ± 1 |
| FSIKPLGQKDIR | 5.47 ± 0.073 |
| FSKHNSYGTNINNLFFSLLH | 6.19 ± 0.077 |
| FSKIIHDSALVNISWMHDGS | 0.844 ± 0.56 |
| FSLICIKIHEKGWQGEG | 4.17 ± 0.065 |
| FSLWSLERLKPIGLSSRMSG | 3.45 ± 0.16 |
| FSLYN | -1.64 ± 0.75 |
| FSMLRVYHLRPDLRVFCCAF | -0.108 ± 1.1 |
| FSMPLLALAFLL | inactive |
| FSMVT | 0.057 ± 0.63 |
| FSRCTSVEV | -0.699 ± 1 |
| FSRSYVPIMY | 0.759 ± 0.8 |
| FSRTSPIRQMIWKFLDCQPA | -0.978 ± 0.41 |
